Measurements published in the supplement of paper PMC10567573.

B1: STK38L (parent)
chain: RQLAYSTVGTPDYIAPEVFMQTGY
B2: HDAC6 (parent)
chain: KMKTRELHRESSNFDSIYICPSTF

Variants of: B1
Assay: protein stability index of a GFP-peptide fusion (GPS, HEK-293T) (PSI 1-6); higher = more stable
Conditions: c terminus: a fixed tail appended
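Note: lentivirally expressed fusions sorted by FACS into six bins by GFP to DsRed ratio, PSI derived from sequencing read proportions per bin multiplied by bin number.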

Protein stability index: each site, then its substitutions
M20: N 2.87, S 3
E17: Q 2.22, H 2.22, V 1.83, D 2.79, T 1.98, M 1.68, F 1.9, G 2.39, N 1.97, K 2.08, L 1.76, Y 1.78, S 2.21, A 2.08, C 1.8, I 2.17, P 2.12, R 2.71, W 1.44
Q21: E 3.22, L 1.7, I 1.65, V 1.11, F 2.21, P 2.49, S 2.74, C 1.75, R 2.62, H 2.79, W 1.82, N 2.26, T 2.42, Y 1.51, D 3.06, K 2.66, G 2.27, A 2.88

Variants of: B2
Assay: as above
Conditions: c terminus: a fixed tail appended

Protein stability index of substitutions, site by site:
F24: I 2.31, M 2.65, C 2.97, Q 2.62, N 2.95
K1: Y 1.59, T 2.14, L 1.83, E 2.84, G 2.29
K3: Y 2.06, E 2.94, L 1.71, G 2.08, T 2.2, Q 2.38, A 2.62, M 1.5
S22: H 2.09, V 1.6, T 1.74, R 1.83, K 3.33
C20: I 1.69, F 2.21, L 2.2, H 2.94, K 2.15, T 2.76
E10: P 1.82, L 2.15, C 2.18
S11: T 2.41, F 1.71, P 2.13, D 2.54, M 1.61, A 1.87
M2: Y 2.11, Q 3.52, F 2.04, S 2.37, C 2.28, V 1.66, G 2.33
L7: A 3.33, N 2.65, M 1.46, D 2.73, Y 2.41, H 3.02, T 2.77, G 3.12
N13: Q 2.44, D 2.61, P 2.49, I 1.73, G 2.68, T 2.35, L 1.74, F 1.45
P21: C 2.71, N 2.37, V 2.33
D15: Y 1.63, F 2.02, R 1.89
I17: K 3.31, L 2.13, R 2.97, P 2.41
T23: R 2.05, H 2.28, N 3, G 2.46, W 1.62, Y 1.83
R5: F 1.94, G 2.39, I 1.83, P 2.36, A 1.98, N 2.46, S 2.21
H8: G 2.15, E 2.32, A 1.98, N 2.07
I19: W 3.01, T 2.25, R 2.47
T4: A 2.29, L 1.72, R 2.41, N 2.03, G 2.83, I 1.85, K 2.39, Y 2, P 2.05
S16: T 2.62, F 2.08, E 3.02, V 2.12, P 2.47
Y18: L 2.82, C 2.29, E 3.45, N 3.56
S12: I 1.94, A 2.34, Q 2.54, W 2.17, N 2.04, D 2.29
R9: A 2.27, S 2.27
F14: A 3.84, W 2.01, N 3.05, H 2.88, V 2.68, Q 3.71
E6: H 1.96, S 2.2, P 1.66, G 1.57, A 1.99
